Experimental data published in patent publication US20200370085A1.
pKd: −log10 of the molar value.

Target: VEGF (UniProt P15692)
Assay: solution equilibrium titration (SET) ELISA, crude IVT product 1:400, monovalent fit

Chain of UniProt P15692 (P15692 other isoform, or with tags, fused parts or gaps limits assumed): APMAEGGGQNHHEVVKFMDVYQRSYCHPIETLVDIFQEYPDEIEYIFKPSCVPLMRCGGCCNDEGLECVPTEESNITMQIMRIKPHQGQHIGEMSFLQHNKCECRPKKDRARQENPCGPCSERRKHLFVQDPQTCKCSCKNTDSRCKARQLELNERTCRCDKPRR

Row | pKd | Substance
1 | 11.39 | [N31H] Avastin scFv
2 | 11.05 | [S105T] Avastin scFv
3 | 10.96 | [H101Y] Avastin scFv
